Measured values reported in PMC3113550.
pKd: −log10 of the molar value.

Legend:
Experiment in all cases: AUC
[1] = target: Mouse E-cadherin EC1-2 P5A (mouse)
[2] = target: Mouse cadherin-11 EC1-2 F8A (mouse)
[3] = target: Mouse E-cadherin EC1-2 wild-type (mouse)
[4] = target: Mouse E-cadherin EC1-2 E11D (mouse)
[5] = target: Mouse E-cadherin EC1-2 P5G P6G (mouse)
[6] = target: Mouse E-cadherin EC1-2 with two alanines inserted between residues 2 and 3 (mouse)
[7] = target: Mouse N-cadherin EC1-2 P5A P6A (mouse)
[8] = target: Mouse E-cadherin EC1-2 P5S P6S (mouse)
[9] = target: Mouse E-cadherin EC1-2 P5A P6A (mouse)
[10] = target: Mouse E-cadherin EC1-2 W2F (mouse)
[11] = target: Mouse E-cadherin EC1-2 with one alanine inserted between residues 2 and 3 (mouse)
[12] = target: Mouse E-cadherin EC2-3 F108W del-TQE (mouse)
[13] = target: Mouse cadherin-11 EC1-2 wild type (mouse)
[14] = target: Mouse N-cadherin EC1-2 wild type (mouse)
[15] = target: Mouse E-cadherin EC1-2 P6A (mouse)

Question: How did the pKd [1] turn out when “Mouse E-cadherin EC1-2 P5A (domain or fragment)” was run?
Answer: Its pKd is 5.54.

Question: With “Mouse cadherin-11 EC1-2 F8A (domain or fragment)” as the substance, how does the pKd [2] read?
Answer: The pKd was 5.43.

Question: How did the pKd [3] turn out when “Mouse E-cadherin EC1-2 wild-type (domain or fragment)” was run?
Answer: The pKd was 4.02.

Question: With “Mouse E-cadherin EC1-2 E11D (domain or fragment)” as the substance, how does the pKd [4] read?
Answer: Its pKd is 4.15.

Question: With “Mouse E-cadherin EC1-2 P5G P6G (domain or fragment)” as the substance, how does the pKd [5] read?
Answer: Its pKd is 5.57.

Question: How did the pKd [6] turn out when “Mouse E-cadherin EC1-2 with two alanines inserted between residues 2 and 3 (domain or fragment)” was run?
Answer: The pKd was 3.71.

Question: “Mouse N-cadherin EC1-2 P5A P6A (domain or fragment)” was tested. Which pKd [7] did it give?
Answer: Its pKd is 5.44.

Question: How did the pKd [8] turn out when “Mouse E-cadherin EC1-2 P5S P6S (domain or fragment)” was run?
Answer: Its pKd is 5.54.

Question: How did the pKd [9] turn out when “Mouse E-cadherin EC1-2 P5A P6A (domain or fragment)” was run?
Answer: Its pKd is 5.43.

Question: With “Mouse E-cadherin EC1-2 W2F (domain or fragment)” as the substance, how does the pKd [10] read?
Answer: Its pKd is 3.61.

Question: “Mouse E-cadherin EC1-2 with one alanine inserted between residues 2 and 3 (domain or fragment)” was tested. Which pKd [11] did it give?
Answer: The pKd was 2.82.

Question: With “Mouse E-cadherin EC2-3 F108W del-TQE (domain or fragment)” as the substance, how does the pKd [12] read?
Answer: Its pKd is 4.33.

Question: With “Mouse cadherin-11 EC1-2 wild type (domain or fragment)” as the substance, how does the pKd [13] read?
Answer: The pKd was 4.60.

Question: “Mouse N-cadherin EC1-2 wild type (domain or fragment)” was tested. Which pKd [14] did it give?
Answer: Its pKd is 4.59.

Question: “Mouse E-cadherin EC1-2 P6A (domain or fragment)” was tested. Which pKd [15] did it give?
Answer: Its pKd is 5.32.
